Source: patent US20050170334A1

Key:
Assay in all cases: ELISA, peptide coated, antibody 10 µg/ml
[1] = target: M15 (influenza A virus)
[2] = target: M16 (influenza A virus)
[3] = target: M2 peptide (extracellular 23-amino-acid M2 peptide) (influenza A virus)
[4] = target: NM15 (influenza A virus)
[5] = target: NM16 (influenza A virus)
[6] = target: NM17 (influenza A virus)

B1: C40G1 (antibody, V domains shown)
VH: QLQLQESGPGLVKPSETLSLTCTVSGGSISSSFYYCGWIRQPPGKGLEWIGSIYYRGSTYYNPSLKSRVTISVDTSKNQFSLKLSSVTAADTAVYYCARRVTMVRGVKGDYFDYWGQGTLVTVSS
VL: DIQMTQSPSSLSASVGDRVTITCRASQGISSWLAWYQQKPEKVPKSLIYAASSLQSGVPSRFSGSGSGTDFTLTISSLQPEDFATYYCQQYNYYPLTFGGGTKVEIKR
[1]
  ELISA (OD450): 2.73 OD450
[2]
  ELISA (OD450): 2.64 OD450
[3]
  ELISA (OD450): 2.56 OD450
[4]
  ELISA (OD450): 2.51 OD450
[5]
  ELISA (OD450): 2.37 OD450
[6]
  ELISA (OD450): 2.41 OD450
